Earlier results as cited in publication PMC9313270.

Target: leptin (UniProt P41159)
Experiment: not stated (listed for the qPCR aptasensor, 'This work')
Conditions: leptin binding buffer (composition not given); aptamer-adaptor annealing 15 min at 37 C, leptin incubation 30 min at 37 C, polymerase extension 10 min at 60 C …

leptin, sequence (P41159 22-167): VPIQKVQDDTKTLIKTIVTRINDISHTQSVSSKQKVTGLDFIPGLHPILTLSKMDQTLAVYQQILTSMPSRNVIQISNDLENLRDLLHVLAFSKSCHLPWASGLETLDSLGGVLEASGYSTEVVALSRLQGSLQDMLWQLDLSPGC

In the case of “GTTAATGGGGGATCTCGCGGCCGTTCTTGTTGCTTATACA [leptin aptamer (Ashley and Li)]”, the Kd is listed as 1.5 µM.
